Test results from article PMC11493271, “The N-terminal activation function AF-1 domain of ERα interacts directly with the C-terminal AF-2-holding ligand-binding domain to recruit the coactivator proteins” (PLOS ONE, 2024).
Entries after “also recorded” stand apart in the source; their conditions may differ.

T1: desNTD(AF-1)-ERα (Homo sapiens, UniProt P03372)
T1 sequence (P03372 181-595): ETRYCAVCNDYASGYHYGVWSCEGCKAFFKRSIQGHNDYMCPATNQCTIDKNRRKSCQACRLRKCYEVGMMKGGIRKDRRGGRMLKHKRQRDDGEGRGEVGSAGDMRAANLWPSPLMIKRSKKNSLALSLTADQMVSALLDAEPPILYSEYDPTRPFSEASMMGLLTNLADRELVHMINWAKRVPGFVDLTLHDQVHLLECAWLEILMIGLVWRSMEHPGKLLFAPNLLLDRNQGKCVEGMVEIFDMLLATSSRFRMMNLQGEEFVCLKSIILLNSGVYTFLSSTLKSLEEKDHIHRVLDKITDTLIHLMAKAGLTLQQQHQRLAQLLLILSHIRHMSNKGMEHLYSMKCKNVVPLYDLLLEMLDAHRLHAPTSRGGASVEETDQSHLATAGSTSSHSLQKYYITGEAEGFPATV

T2: full-length ERα (Homo sapiens, UniProt P03372)
T2 construct: […]; host or cells: HeLa cells
T2 sequence (P03372 1-595): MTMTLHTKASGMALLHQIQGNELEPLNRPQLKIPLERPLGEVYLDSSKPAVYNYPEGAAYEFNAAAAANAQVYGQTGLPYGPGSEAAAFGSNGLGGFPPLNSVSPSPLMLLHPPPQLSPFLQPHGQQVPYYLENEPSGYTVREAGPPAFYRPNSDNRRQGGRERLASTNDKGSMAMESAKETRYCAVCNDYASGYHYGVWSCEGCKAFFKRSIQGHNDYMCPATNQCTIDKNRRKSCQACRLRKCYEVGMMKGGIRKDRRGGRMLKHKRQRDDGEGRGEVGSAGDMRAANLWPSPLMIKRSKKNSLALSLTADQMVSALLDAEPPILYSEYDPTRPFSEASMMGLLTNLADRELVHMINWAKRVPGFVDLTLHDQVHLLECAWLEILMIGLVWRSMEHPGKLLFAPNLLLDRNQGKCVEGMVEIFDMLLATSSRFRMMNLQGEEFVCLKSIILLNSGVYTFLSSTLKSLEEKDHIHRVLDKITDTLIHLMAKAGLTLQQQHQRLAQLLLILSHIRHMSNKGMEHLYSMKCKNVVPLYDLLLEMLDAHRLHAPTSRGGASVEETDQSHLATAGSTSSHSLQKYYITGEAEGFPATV


Legend:
[1] = target: desNTD(AF-1)-ERα, ERα C-terminal fragment with amino acid residues 181-595 (human) (UniProt P03372)
[2] = target: full-length estrogen receptor alpha (ERα), wild type (1-595) (human) (UniProt P03372)
[3] = target: full-length estrogen receptor alpha (ERα), wild type (1-595) (human) (UniProt P03372); remark: listed apart in the source
desNTD(AF-1)-ERα = target: T1, desNTD(AF-1)-ERα; experiment: Luciferase reporter gene assay for desNTD(AF-1)-ERα, alone or co-expressed with ERα-NTD(AF-1), in HeLa cells
Procedure: (§1) The luciferase reporter gene assays were carried out exactly as described above.

[4] = test system: 3 × ERE/pGL3 luciferase reporter; experiment: Transcription activity of truncated ERα derivatives in the luciferase reporter gene assay (HeLa cells); conditions: plasmid 250 ng/well
Procedure: as §1

full-length ERα = target: T2, full-length ERα; experiment: ERα-NTD(AF-1) inhibition assay: co-expression with full-length ERα, luciferase reporter gene assay in HeLa cells; format: cell-based; conditions: for effect on transcription activity of full-length ERα: plasmid 0.01–2.00 μg/well with full-length ERα 0.05 μg/well, E2 0.1, 1 or 50 nM, Fig 3
Procedure: Other expression plasmids were used in fixed amounts: full-length ERα/pcDNA3.1 (0.05 μg/well), 3 × ERE/pGL3 (0.15 μg/well), and pGL4.74 (0.05 μg/well) (Table 1).
Gene transfections followed by luciferase reporter gene assays were carried out basically as described above.
Thus, each distinct maximal activity was evaluated precisely as a percentage.

Row | luciferase reporter gene assay in HeLa cells: apparent IC50 of the ERα-NTD(AF-1) plasmid (amount transfected per well of a 6-well microplate) for inhibition of desNTD(AF-1)-ERα [1] | luciferase reporter gene assay in HeLa cells: apparent IC50 of the ERα-NTD(AF-1) plasmid (amount transfected per well of a 6-well microplate) for the activity of 10 nM E2 on full-length ERα [2] | luciferase reporter gene assay in HeLa cells: IC50 of the ERα-NTD(AF-1) plasmid (amount transfected per well of a 6-well microplate) from the curve of the maximal activity of ERα/E2 [3] | reduction in E2-induced transactivation compared to desNTD(AF-1)-ERα alone (desNTD(AF-1)-ERα; ERα-NTD(AF-1): desNTD(AF-1)-ERα = 1:1, desNTD(AF-1)-ERα 250 ng/well) | apparent IC50 for inhibition of desNTD(AF-1)-ERα (desNTD(AF-1)-ERα; plasmid amount per well of 6-well microplate used for transfection) | reduction in E2-induced transactivation compared to desNTD(AF-1)-ERα alone (desNTD(AF-1)-ERα; ratio 2:1) | reduction in E2-induced transactivation compared to desNTD(AF-1)-ERα alone (desNTD(AF-1)-ERα; ratio 3:1) | reduction in E2-induced transactivation compared to desNTD(AF-1)-ERα alone (desNTD(AF-1)-ERα; ratio 4:1) | reduction in E2-induced transactivation compared to desNTD(AF-1)-ERα alone (desNTD(AF-1)-ERα; ratio 5:1) | reduction in E2-induced transactivation compared to desNTD(AF-1)-ERα alone (desNTD(AF-1)-ERα; ratio 6:1) | IC50 from transfection amount vs maximal activity of ERα/E2 (full-length ERα; E2 dose-response maxima, plasmid per well of 6-well microplate, Fig 4C) | effect on transcription activity of full-length ERα (full-length ERα) | apparent IC50 for inhibition of full-length ERα (full-length ERα; residual activity of 10 nM E2, plasmid per well of 6-well microplate, Fig 4A) | mode of inhibition of full-length ERα (full-length ERα; with respect to E2) | Molecule | transcription activation (response to E2) ([4]; construct expressed alone) | relative activity (% of wild-type full-length ERα) ([4]; maximal E2 activity)
1 | 863 ng/well | 836 ng/well | 631 ng/well |  |  |  |  |  |  |  |  |  |  |  | ERα-NTD(AF-1), untethered free N-terminal fragment of estrogen receptor alpha (residues 1-180), non-tagged (from UniProt P03372 1-180) (domain or fragment) |  | 
2 |  |  |  | ~20% | 863 ng/well | 44% | 62% | 73% | 85% | 91% | 631 ng/well | reduced in a dose-dependent manner | 836 ng/well | non-competitive inhibitor | ERα-NTD(AF-1): ERα N-terminal fragment with amino acid residues 1–180, expressed from plasmid ERα-NTD(AF-1)/pcDNA3.1 (protein) MTMTLHTKASGMALLHQIQGNELEPLNRPQLKIPLERPLGEVYLDSSKPAVYNYPEGAAYEFNAAAAANAQVYGQTGLPYGPGSEAAAFGSNGLGGFPPLNSVSPSPLMLLHPPPQLSPFLQPHGQQVPYYLENEPSGYTVREAGPPAFYRPNSDNRRQGGRERLASTNDKGSMAMESAK | completely inactive; also recorded: completely devoid of transcription activation | 0%
3 |  |  |  |  |  |  |  |  |  |  |  | inhibits full-length ERα |  |  | FLAG-ERα-NTD(AF-1): ERα-NTD(AF-1) tagged at the N-terminus with DYKDDDDK, a FLAG-epitope peptide (protein, left off: FLAG, N-terminal, kept) MTMTLHTKASGMALLHQIQGNELEPLNRPQLKIPLERPLGEVYLDSSKPAVYNYPEGAAYEFNAAAAANAQVYGQTGLPYGPGSEAAAFGSNGLGGFPPLNSVSPSPLMLLHPPPQLSPFLQPHGQQVPYYLENEPSGYTVREAGPPAFYRPNSDNRRQGGRERLASTNDKGSMAMESAK |  | 
